# Bridge positions count the residues as written; N and C are the ends. Square brackets hold non-standard residues; d marks the D form. Ends that are not written are not given here. d2Nal = N[C@H](Cc1ccc2ccccc2c1)C(=O)O; Bta = N[C@@H](Cc1csc2ccccc12)C(=O)O; hArg = N=C(N)NCCCC[C@H](N)C(=O)O; Pen = CC(C)(S)[C@H](N)C(=O)O; Nle = CCCC[C@H](N)C(=O)O; Aib = CC(C)(N)C(=O)O; Ava = NCCCCC(=O)O; GABA = NCCCC(=O)O; βAla = NCCC(=O)O
# B1: D-Phe-c(Cys-His-D-Phe-hArg-Trp-β-Ala-D-Cys)-Thr-NH2 (peptide)
# peptide: [dF]CH[dF][hArg]W[βAla][dC]T-NH2
# modifications: disulfide 2-8; N-terminus assumed
# SMILES: C[C@@H](O)[C@H](NC(=O)[C@H]1CSSC[C@H](NC(=O)[C@H](N)Cc2ccccc2)C(=O)N[C@@H](Cc2c[nH]cn2)C(=O)N[C@H](Cc2ccccc2)C(=O)N[C@@H](CCCCNC(=N)N)C(=O)N[C@@H](Cc2c[nH]c3ccccc23)C(=O)NCCC(=O)N1)C(N)=O
# B2: Ac-c(Cys-Glu-His-D-2-Nal-Arg-Bal-Ala-Cys)-Pro-Pro-Lys-Asp-β-Ala-Tyr-Aib-Arg-Lys-Lys-Arg-Arg-Gln-Arg-Arg-Arg-NH2 (peptide)
# peptide: Ac-CEH[d2Nal]R[Bta]ACPPKD[βAla]Y[Aib]RKKRRQRRR-NH2
# modifications: disulfide 1-8
# SMILES: CC(=O)N[C@H]1CSSC[C@@H](C(=O)N2CCC[C@H]2C(=O)N2CCC[C@H]2C(=O)N[C@@H](CCCCN)C(=O)N[C@@H](CC(=O)O)C(=O)NCCC(=O)N[C@@H](Cc2ccc(O)cc2)C(=O)NC(C)(C)C(=O)N[C@@H](CCCNC(=N)N)C(=O)N[C@@H](CCCCN)C(=O)N[C@@H](CCCCN)C(=O)N[C@@H](CCCNC(=N)N)C(=O)N[C@@H](CCCNC(=N)N)C(=O)N[C@@H](CCC(N)=O)C(=O)N[C@@H](CCCNC(=N)N)C(=O)N[C@@H](CCCNC(=N)N)C(=O)N[C@@H](CCCNC(=N)N)C(N)=O)NC(=O)[C@H](C)NC(=O)[C@H](Cc2csc3ccccc23)NC(=O)[C@H](CCCNC(=N)N)NC(=O)[C@@H](Cc2ccc3ccccc3c2)NC(=O)[C@H](Cc2c[nH]cn2)NC(=O)[C@H](CCC(=O)O)NC1=O
# B3: Ac-D-Arg-c(Cys-His-D-Phe-Arg-Trp-Gaba-Pen)-NH2 (peptide)
# peptide: Ac-[dR]CH[dF]RW[GABA][Pen]-NH2
# modifications: disulfide 2-8
# SMILES: CC(=O)N[C@H](CCCNC(=N)N)C(=O)N[C@H]1CSSC(C)(C)[C@@H](C(N)=O)NC(=O)CCCNC(=O)[C@H](Cc2c[nH]c3ccccc23)NC(=O)[C@H](CCCNC(=N)N)NC(=O)[C@@H](Cc2ccccc2)NC(=O)[C@H](Cc2c[nH]cn2)NC1=O
# B4: Nle-c(Cys-His-D-Phe-Arg-Trp-Apn-Cys)-NH2 (peptide)
# peptide: [Nle]CH[dF]RW[Ava]C-NH2
# modifications: disulfide 2-8; N-terminus assumed
# SMILES: CCCC[C@H](N)C(=O)N[C@H]1CSSC[C@@H](C(N)=O)NC(=O)CCCCNC(=O)[C@H](Cc2c[nH]c3ccccc23)NC(=O)[C@H](CCCNC(=N)N)NC(=O)[C@@H](Cc2ccccc2)NC(=O)[C@H](Cc2c[nH]cn2)NC1=O
# B5: Ac-Nle-c(Cys-D-Leu-His-D-Phe-Arg-Trp-Cys)-NH2 (peptide)
# peptide: Ac-[Nle]C[dL]H[dF]RWC-NH2
# modifications: disulfide 2-8
# SMILES: CCCC[C@H](NC(C)=O)C(=O)N[C@H]1CSSC[C@@H](C(N)=O)NC(=O)[C@H](Cc2c[nH]c3ccccc23)NC(=O)[C@H](CCCNC(=N)N)NC(=O)[C@@H](Cc2ccccc2)NC(=O)[C@H](Cc2c[nH]cn2)NC(=O)[C@@H](CC(C)C)NC1=O
# B6: Hydantoin(C(O)-(Arg-Gly))-c(Cys-D-Ala-His-D-2-Nal-Arg-Trp-Cys)-NH2 (peptide)
# peptide: RGCAHXRWC
# modifications: residues 1-2 joined in a hydantoin ring (C(O)); D-Ala4; X6=D-2-Nal; Cys3-Cys9 disulfide; C-terminal amide
# Target: human melanocortin receptor subtype 5 (hMC5-R) (human), P33032
# Assay: [125I]-NDP-α-MSH competition, membranes
# human melanocortin receptor subtype 5 (hMC5-R) (human), P33032, sequence (P33032 whole entry): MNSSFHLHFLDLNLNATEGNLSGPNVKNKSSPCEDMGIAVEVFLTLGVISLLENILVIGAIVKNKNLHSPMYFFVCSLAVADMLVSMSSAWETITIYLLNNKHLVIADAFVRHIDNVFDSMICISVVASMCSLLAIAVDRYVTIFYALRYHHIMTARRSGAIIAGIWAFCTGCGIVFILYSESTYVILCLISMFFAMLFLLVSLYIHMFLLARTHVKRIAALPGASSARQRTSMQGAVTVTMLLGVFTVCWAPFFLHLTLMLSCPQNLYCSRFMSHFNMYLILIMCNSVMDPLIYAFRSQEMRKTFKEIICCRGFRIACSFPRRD
row,Binder,Ki [nM]
1,Ac-YRC[dA]H[dF]RWC-NH2 (disulfide 3-9) [Ac-Tyr-Arg-c(Cys-D-Ala-His-D-Phe-Arg-Trp-Cys)-NH2],714

# Target: human melanocortin receptor subtype 4 (hMC4-R) (human), P32245
# Assay: [125I]-NDP-α-MSH competition, membranes
# human melanocortin receptor subtype 4 (hMC4-R) (human), P32245, sequence (P32245 whole entry): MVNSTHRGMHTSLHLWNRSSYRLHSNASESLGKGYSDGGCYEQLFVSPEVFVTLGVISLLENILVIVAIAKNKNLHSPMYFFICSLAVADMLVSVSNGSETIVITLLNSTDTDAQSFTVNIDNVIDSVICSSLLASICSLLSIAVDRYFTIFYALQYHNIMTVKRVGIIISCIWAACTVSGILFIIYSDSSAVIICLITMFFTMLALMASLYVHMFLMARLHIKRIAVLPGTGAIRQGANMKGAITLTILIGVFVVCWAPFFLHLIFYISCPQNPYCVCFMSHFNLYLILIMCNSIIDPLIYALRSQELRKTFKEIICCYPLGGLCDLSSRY
row,Binder,Ki [nM]
1,IC[dA]H[dF]RWC-NH2 (disulfide 2-8; also: hydantoin ring from C(O) with Ile1-Cys2) [c[Hydantoin(C(O)-(Ile-Cys))-D-Ala-His-D-Phe-Arg-Trp-Cys]-NH2],41.6

# Target: human melanocortin receptor subtype 1 (hMC1-R) (human), Q01726
# Assay: [125I]-NDP-α-MSH competition, membranes
# human melanocortin receptor subtype 1 (hMC1-R) (human), Q01726, sequence (Q01726 whole entry): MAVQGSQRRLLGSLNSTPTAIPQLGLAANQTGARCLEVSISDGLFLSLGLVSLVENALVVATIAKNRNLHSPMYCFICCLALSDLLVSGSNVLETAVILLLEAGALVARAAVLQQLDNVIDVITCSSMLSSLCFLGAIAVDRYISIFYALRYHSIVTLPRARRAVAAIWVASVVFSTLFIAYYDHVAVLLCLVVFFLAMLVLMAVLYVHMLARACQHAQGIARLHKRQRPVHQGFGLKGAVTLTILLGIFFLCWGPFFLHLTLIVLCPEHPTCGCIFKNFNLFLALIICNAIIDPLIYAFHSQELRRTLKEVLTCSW
row,Binder,Ki [nM]
1,IC[dA]H[dF]RWC-NH2 (disulfide 2-8; also: hydantoin ring from C(O) with Ile1-Cys2) [c[Hydantoin(C(O)-(Ile-Cys))-D-Ala-His-D-Phe-Arg-Trp-Cys]-NH2],53.4

# Target: hMC1-R (human) (UniProt Q01726)
# Assay: ratio Ki hMC1-R / Ki hMC4-R, same assay
# hMC1-R (human), sequence (Q01726 whole entry): as above
row,Binder,Ki hMC1-R/MC4-R
1,B1,0.04

# Target: hMC3-R (human) (UniProt P41968)
# Assay: competition with [125I]-NDP-α-MSH, CHO-K1 membranes
# hMC3-R (human), sequence (P41968 whole entry): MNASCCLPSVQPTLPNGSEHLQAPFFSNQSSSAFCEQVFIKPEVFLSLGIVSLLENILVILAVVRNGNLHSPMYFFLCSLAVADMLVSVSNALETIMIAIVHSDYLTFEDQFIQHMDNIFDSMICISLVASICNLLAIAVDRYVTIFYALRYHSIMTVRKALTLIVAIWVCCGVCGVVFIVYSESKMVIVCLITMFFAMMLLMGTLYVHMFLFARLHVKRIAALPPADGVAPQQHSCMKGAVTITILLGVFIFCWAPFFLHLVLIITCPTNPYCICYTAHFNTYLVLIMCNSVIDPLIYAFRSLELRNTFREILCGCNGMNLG
row,Binder,Ki [nM]
1,B1,123

# Target: hMC5-R (human) (UniProt P33032)
# Assay: as above
# hMC5-R (human), sequence (P33032 whole entry): as the sequence (P33032 whole entry) above
row,Binder,Ki [nM]
1,B1,521

# Target: hMC1-R (human) (UniProt Q01726)
# Assay: as above
row,Binder,Ki [nM]
1,B1,0.442

# Target: hMC4-R (human) (UniProt P32245)
# Assay: as above
# hMC4-R (human), sequence (P32245 whole entry): as the sequence (P32245 whole entry) above
row,Binder,Ki [nM]
1,B1,10.3

# Target: hMC3-R (human) (UniProt P41968)
# Assay: cell-based or functional assay
Binder,cAMP EC50 [nM],cAMP Kb
GCEH[dF]RWC-NH2 (disulfide 2-8; also: residues 1-2 joined in a hydantoin ring (C(O))) [c[Hydantoin(C(O)-(Gly-Cys))-Glu-His-D-Phe-Arg-Trp-Cys]-NH2],21.8,–
B2,–,439
B3,32.4,–
B4,0.27,–
[Nle]CH[dF]RW[GABA]C-NH2 (disulfide 2-8) [Nle-c(Cys-His-D-Phe-Arg-Trp-Gaba-Cys)-NH2],0.1,–
B5,0.465,–
B6,13.1,–
[dF]CH[d(Et)Tyr]RW[βAla][dC]T-NH2 (disulfide 2-8) [D-Phe-c(Cys-His-D-(Et)Tyr-Arg-Trp-β-Ala-D-Cys)-Thr-NH2],1.1,–

# Target: hMC5-R (human) (UniProt P33032)
# Assay: cell-based or functional assay
row,Binder,cAMP EC50 [nM]
1,GCEH[dF]RWC-NH2 (disulfide 2-8; also: residues 1-2 joined in a hydantoin ring (C(O))) [c[Hydantoin(C(O)-(Gly-Cys))-Glu-His-D-Phe-Arg-Trp-Cys]-NH2],1780
2,B2,582
3,B3,2140
4,B4,3.1
5,[Nle]CH[dF]RW[GABA]C-NH2 (disulfide 2-8) [Nle-c(Cys-His-D-Phe-Arg-Trp-Gaba-Cys)-NH2],1.7
6,B5,78.5
7,B6,103
8,[dF]CH[d(Et)Tyr]RW[βAla][dC]T-NH2 (disulfide 2-8) [D-Phe-c(Cys-His-D-(Et)Tyr-Arg-Trp-β-Ala-D-Cys)-Thr-NH2],0.37

# Target: hMC1-R (human) (UniProt Q01726)
# Assay: cell-based or functional assay
row,Binder,cAMP EC50
1,GCEH[dF]RWC-NH2 (disulfide 2-8; also: residues 1-2 joined in a hydantoin ring (C(O))) [c[Hydantoin(C(O)-(Gly-Cys))-Glu-His-D-Phe-Arg-Trp-Cys]-NH2],14.5 nM
2,B2,67.1
3,B3,8.43 nM
4,B4,0.31 nM
5,[Nle]CH[dF]RW[GABA]C-NH2 (disulfide 2-8) [Nle-c(Cys-His-D-Phe-Arg-Trp-Gaba-Cys)-NH2],0.37 nM
6,B5,3.24 nM
7,B6,96.6 nM
8,[dF]CH[d(Et)Tyr]RW[βAla][dC]T-NH2 (disulfide 2-8) [D-Phe-c(Cys-His-D-(Et)Tyr-Arg-Trp-β-Ala-D-Cys)-Thr-NH2],0.35 nM

# Target: hMC4-R (human) (UniProt P32245)
# Assay: cell-based or functional assay
Binder,cAMP EC50 [nM],cAMP Kb
GCEH[dF]RWC-NH2 (disulfide 2-8; also: residues 1-2 joined in a hydantoin ring (C(O))) [c[Hydantoin(C(O)-(Gly-Cys))-Glu-His-D-Phe-Arg-Trp-Cys]-NH2],0.576,–
B2,–,46.5
B3,0.959,–
B4,0.018,–
[Nle]CH[dF]RW[GABA]C-NH2 (disulfide 2-8) [Nle-c(Cys-His-D-Phe-Arg-Trp-Gaba-Cys)-NH2],0.021,–
B5,0.0915,–
B6,21.2,–
[dF]CH[d(Et)Tyr]RW[βAla][dC]T-NH2 (disulfide 2-8) [D-Phe-c(Cys-His-D-(Et)Tyr-Arg-Trp-β-Ala-D-Cys)-Thr-NH2],0.11,–
